This note sets out measurements from article PMC8657457.

In general, stoichiometry N refers to a count of units in the complex or per binding partner.

The test addresses CyOFP1. Nature of the test: SEC; FPLC on Superdex 75 10/300 GL; elution in 20 mM Tris-HCl (pH 7.80), 200 mM NaCl; oligomeric state from the elution volume against molecular weight standards. (In general: Size exclusion chromatography separates by hydrodynamic size, large species first.)

CyOFP1: the stoichiometry N was determined as 2.
